For data set [1], the system named is G. max ALS1 protein. The experiment in a line: Colorimetric ALS kinetic assay (Km, kcat) with pyruvate as substrate. Type of data set: biochemical, Glycine max. Here is the method:
A survey of known ALS (AcetoLactate Synthase) gene variants (Table 2) was performed, and a number of ALS variants were selected for kinetic evaluation based on breadth and strength of insensitivity to ALS-inhibitor herbicides as well as kinetic activity parameters including the ratio of substrate preferences. The selected ALS gene variants (Table 3) were generated by PCR mediated site-directed mutagenesis. Finnzymes PHUSION® DNA polymerase (Cat. No. F-530S) was used for the PCR reactions, following the instructions for recommended temperatures and cycles in the PHUSION® protocol. Some mutagenesis reactions were assisted by the use of IN-FUSION® enzyme (Clontech Cat. No. 639620) to circularize a linear plasmid with the mutation located within the 15 nucleotide overlapping ends, via recombination following the manufacturer's protocol for primer design and reaction conditions. The ALS genes, beginning with encoded amino acids SISK, (S48 to K51 in the G. max ALS1 protein (SEQ ID NO:1) corresponding to the mature protein N-terminus of the chloroplast localized enzyme), were cloned into the PMAL® E. coli expression vector (New England Biolabs) to express ALS as a fusion protein with a Maltose-Binding Protein (MBP) at the N-terminus with a thrombin site for cleavage and a His-6 tag for affinity purification. All in vitro protein characterization described in the examples was carried out with the isolated proteins after cleavage from the His-MBP fusion partner.
Km and Kcat determinations for recombinant ALS variants (with respect to pyruvate as the substrate) were performed using a colorimetric assay. ALS assays were carried out in 96-well microplates with 150 ul reaction containing 25 mM potassium phosphate, 0.2 mg/ml BSA, 15 mM MgCl2, 0.7 mM TPP, 28 uM FAD and 0-100 mM sodium pyruvate. Reactions were initiated by the addition of ALS enzyme to a final amount of 0.8 ug/well. Parameters for Km and Vmax were determined by fitting the velocity versus substrate concentration data to a rectangular hyperbola using GraphPad Prism software. Kcat values were determined from Vmax based on protein concentration in the reactions.

Data set [2] concerns G. max ALS1 protein. The experiment in a line: Substrate specificity ratio (Rf), pyruvate versus 2-ketobutyrate, LC-MS of reduced products. Type of data set: biochemical, Glycine max. The note with it: ratio of [pyruvate] to [2-ketobutyrate] giving equal rates of acetolactate and acetohydroxybutyrate formation, 25 mM pyruvate. From the text: The “substrate specificity ratio”, or “Rf”, characterizes the specificity of the ALS enzyme for AHB formation relative to AL formation (Gollop et al. (1989) Biochemistry 28:6310-6317). Rf is the ratio of [pyruvate] to [2-ketobutyrate] that results in equal rates of formation of acetolactate and acetohydroxybutyrate. Rf is a constant at all substrate concentrations. The substrate specificity ratio is ˜114 for the wild type Glycine max ALS1 enzyme (SEQ ID NO:1) compared to ˜3 for the highly resistant allele (HRA) double mutant variant (SEQ ID NO: 10) of the Glycine max ALS1. The soybean HRA sequence is disclosed, for example, in WO2007/024782, herein incorporated by reference.
Substrate preference was determined using the assay described in Example 3; however, the assay was conducted using a constant concentration of pyruvate (25 mM) and varying concentrations of the second substrate, 2-ketobutyrate. Each reaction involving a specific ratio of pyruvate to 2-ketobutyrate, after a set period of time, was quenched by addition of sodium borohydride (7-fold excess) to form the reduced adducts of the products of the two substrates namely; reduced acetolactate for the reaction with pyruvate and reduced aceto hydroxybutyrate for the 2-ketobutyrate reaction. The relative amounts of the two reduced products was determined by first, chromatographic separation using a 4.6×250 mm dC18 column (Atlantis) equilibrated with a 0.1% formic acid solution and subsequent elution using a methanol gradient at 0.7 ml/min, followed by detection using a Thermo FINNIGAN® LTQ® Mass Spectrometer (MS). The products of the two reactions were quantified by integration of the MS signals. The % of the amount of each of the reduced products was then plotted versus the concentration of 2-ketobutyrate. As the 2-ketobutyrate amount increased there was a consequent increase in reduced acetohydroxybutyrate (AHB) and decrease in reduced acetolactate (AL). […] The substrate specificity ratio was ˜114 for the wild type enzyme compared to 3 for the highly resistant allele (HRA) double mutant ALS variant (SEQ ID NO: 10).

For data set [3], the system named is soybean embryogenic suspension tissue. The experiment in a line: Chlorsulfuron selectable marker activity in soybean transformation. The note with it: chlorsulfuron selection 50 then 100 ppb; SAMS (low) or UBQ10 (high) expression promoter as in label. Type of data set: cell-based. The text has this:
Soybean plants expressing ALS variant transgenes were produced using the method of particle gun bombardment (Klein et al. (1987) Nature 327:70-73, U.S. Pat. No. 4,945,050) using a DuPont BIOLISTIC® PDS1000/He instrument. The vectors used to test modified ALS genes as selectable markers in soybean transformation were composed of the S-adenosylmethionine synthase (SAMS) promoter (U.S. Pat. No. 7,741,537) from soybean, or the polyubiquitin 10 (AT-UBQ10) promoter (DuPont) from Arabidopsis, driving the modified ALS coding sequence followed by the native soybean ALS terminator region. The selection agent used during the transformation process was chlorsulfuron. Bombardments were carried out with linear DNA fragments purified away from any bacterial vector DNA. Bombarded soybean embryogenic suspension tissue was cultured for one week in the absence of chlorsulfuron, and then placed in liquid selection medium for 6 weeks. Selection in liquid cultures was at 50 parts per billion (ppb) chlorsulfuron for three weeks, then elevated to 100 ppb. Putative transgenic suspension tissue was sampled for PCR analysis to confirm the presence of the modified ALS gene. Putative transgenic suspension culture tissue was maintained in selection medium for 3 weeks to obtain enough tissue for plant regeneration. […]

Data set [4] relates to soybean plants. The experiment in a line: Chlorsulfuron spray test of transgenic T1 soybean plants. The note with it: chlorsulfuron 3 g ai/ha foliar; homozygous T1 plants; 8 days after treatment; 0=no effect, 100=dead plant. Type of data set: in vivo. Here is the method:
T1 plants, each having an ALS variant transgene, were grown to the V1 to V2 growth stage and then sprayed with commercial chlorsulfuron formulation at a rate of 3 g ai/ha. All chlorsulfuron treatments were applied foliarly with 0.25% nonionic surfactant in a spray volume of 374 L/ha. Individual plants were compared to untreated plants of similar genetic background, evaluated for herbicide response at eight days after treatment and assigned a visual response score from 0 to 100% injury (0=no effect to 100=dead plant at day 8).
Results in Table 8 list the lowest injury among plants of a single event for constructs containing the listed expression cassette. The amino acid substituted ALS variants provided more protection than the overexpression of the native ALS gene. Seed was produced from a number of T1 plants and advanced to more extensive herbicide testing in the T2 generation.

In data set [5] the test system is soybean plants. The experiment in a line: Field spray test of homozygous T3 soybean plants with Affinity Broadspec. Type of data set: in vivo. The note with it: Affinity Broadspec (thifensulfuron + tribenuron) 1 oz product per acre. The protocol:
Homozygous T3 soybean plants with and without ALS variant transgenes were grown in a field study and sprayed at the V2 to V4 growth stage with a commercial formulation of Affinity Broadspec at 1 oz product per acre (2× typical field rate). Affinity Broadspec contains 25% thifensulfuron and 25% tribenuron by volume. The herbicide was applied foliarly with nonionic surfactant. The herbicide response for individual events was determined by comparing to untreated plants of similar genetic background. Visual injury is on a scale of 0 to 100% injury (0=no effect to 100=dead plant). The substituted ALS variants gave substantially more protection to ALS-inhibitors than overexpression of the native ALS gene.

Data set [6] concerns soybean plants. In words: Spray test of homozygous transgenic soybean plants with five ALS-inhibitor herbicides. Type of data set: in vivo. The note with it: homozygous T1 or T2 plants; for Lowest % injury Chlorimuron: chlorimuron 32 g ai/ha foliar; for Lowest % injury Imazapyr: imazapyr 4 g ai/ha foliar; for Lowest % injury Rimsulfuron: rimsulfuron 8 g ai/ha foliar; for Lowest % injury Thifensulfuron-methyl: thifensulfuron-methyl 16 g ai/ha foliar; for Lowest % injury Tribenuron-methyl: tribenuron-methyl 16 g ai/ha foliar. The protocol:
T1 or T2 soybean plants were evaluated with qPCR to confirm they were homozygous for the transgene. Plants were sprayed at the V1 to V2 growth stage with the commercial formulations of chlorimuron (32 g ai/ha), tribenuron-methyl (16 g ai/ha), thifensulfuron-methyl (16 g ai/ha), rimsulfuron (8 g ai/ha), and imazapyr (4 g ai/ha). Each herbicide was applied foliarly with nonionic surfactant in a spray volume of 374 L/ha. The herbicide response for individual plants was determined by comparing to untreated plants of similar genetic background. Visual injury was scored on a scale of 0 to 100% injury (0=no effect to 100=dead plant). The lowest response for four treated plants of a single event from each construct with the listed expression cassette is reported.

Residue numbers refer to the chain shown, from its start.

B1: GM-ALS1: Glycine Max ALS1 protein, wild type (protein)
chain: MAATASRTTRFSSSSSHPTFPKRITRSTLPLSHQTLTKPNHALKIKCSISKPPTAAPFTKEAPTTEPFVSRFASGEPRKGADILVEALERQGVTTVFAYPGGASMEIHQALTRSAAIRNVLPRHEQGGVFAAEGYARSSGLPGVCIATSGPGATNLVSGLADALMDSVPVVAITGQVPRRMIGTDAFQETPIVEVSRSITKHNYLILDVDDIPRVVAEAFFVATSGRPGPVLIDIPKDVQQQLAVPNWDEPVNLPGYLARLPRPPAEAQLEHIVRLIMEAQKPVLYVGGGSLNSSAELRRFVELTGIPVASTLMGLGTFPIGDEYSLQMLGMHGTVYANYAVDNSDLLLAFGVRFDDRVTGKLEAFASRAKIVHIDIDSAEIGKNKQAHVSVCADLKLALKGINMILEEKGVEGKFDLGGWREEINVQKHKFPLGYKTFQDAISPQHAIEVLDELTNGDAIVSTGVGQHQMWAAQFYKYKRPRQWLTSGGLGAMGFGLPAAIGAAVANPGAVVVDIDGDGSFIMNVQELATIRVENLPVKILLLNNQHLGMVVQWEDRFYKSNRAHTYLGDPSSESEIFPNMLKFADACGIPAARVTKKEELRAAIQRMLDTPGPYLLDVIVPHQEHVLPMIPSNGSFKDVITEGDGRTRY
modifications: GLYCINE MAX
notes: Glycine Max ALS1 protein, wild type
As a reminder, the Km is the substrate concentration at which the rate is half of its maximum. In general, kcat refers to the number of substrate molecules converted per active site and unit of time at saturation. On to B1, for which, in the data set with G. max ALS1 protein [1], the Km was 3000 µM. For the same molecule, the kcat in the data set on G. max ALS1 protein [1] was 0.933 s⁻¹. The “Substrate specificity ratio (Rf)” value is reported as 114.0 in the data set with G. max ALS1 protein [2], around 114 in the data set with G. max ALS1 protein [2] (listed as Glycine max ALS1) and around 114 in the data set on G. max ALS1 protein [2] (listed as wild type enzyme). In addition, the “Selectable Marker Activity” value in data set [3] is “not able to act as a selection marker”.

B2: UBQ10: GM-ALS_P178S_D357E: UBQ10 promoter driving ALS variant SEQ ID NO 17 in transgenic soybean (protein)
chain: B1 chain with P178S, D357E
With B2, the Lowest % injury in the data set with soybean plants [4] is listed as 5%. Besides, in the data set with soybean plants [5], the Lowest % injury turned out to be 13%. Moreover, in the data set on soybean plants [6], the “Lowest % injury Chlorimuron” value worked out at 20%, the “Lowest % injury Imazapyr” value came to 40%, the “Lowest % injury Rimsulfuron” value is on record as 70% and the “Lowest % injury Thifensulfuron-methyl” value is 20%. For the same molecule, the “Lowest % injury Tribenuron-methyl” value in the data set with soybean plants [6] stood at 20%.

B3: UBQ10: GM-ALS_A103T_P178S: UBQ10 promoter driving ALS variant SEQ ID NO 7 in transgenic soybean (protein)
chain: B1 chain with A103T, P178S
Take B3: the Lowest % injury with soybean plants [4] is 40%. Also, the Lowest % injury in the data set with soybean plants [5] is recorded as 57%. In addition, in the data set with soybean plants [6], the “Lowest % injury Chlorimuron” value amounted to 35%, the “Lowest % injury Imazapyr” value worked out at 45%, the “Lowest % injury Rimsulfuron” value is on record as 80% and the “Lowest % injury Thifensulfuron-methyl” value is listed as 35%. In addition, the “Lowest % injury Tribenuron-methyl” value with soybean plants [6] was found to be 65%.

B4: SAMS: GM-ALS_P178A_W555L: SAMS promoter driving HRA ALS variant SEQ ID NO 10 in transgenic soybean (protein)
chain: B1 chain with P178A, W555L
As for B4, the Lowest % injury in the data set with soybean plants [4] amounted to 10%; in the data set on soybean plants [5] it was 5%. Also, the “Lowest % injury Tribenuron-methyl” value in the data set on soybean plants [6] was 75%.

B5: SAMS: GM-ALS_P178A: SAMS promoter driving ALS variant SEQ ID NO 9 in transgenic soybean (protein)
chain: B1 chain with P178A
For B5, the Lowest % injury with soybean plants [4] is 0%. Also, in the data set on soybean plants [6], the “Lowest % injury Chlorimuron” value was 0%, the “Lowest % injury Rimsulfuron” value came to 80%, the “Lowest % injury Thifensulfuron-methyl” value was found to be 25% and the “Lowest % injury Tribenuron-methyl” value worked out at 80%.

The values above are taken from patent publication US10294487B2, “Methods and compositions involving ALS variants with native substrate preference” (E I DU PONT DE NEMOURS AND COMPANY, priority 2012, dated 2019).
